According to doi:10.1101/2022.05.04.490172:

Target: T1, BRN2 DNA-binding domain (BRN2-DBD) (Homo sapiens, UniProt P20265 264-415)
T1 sequence: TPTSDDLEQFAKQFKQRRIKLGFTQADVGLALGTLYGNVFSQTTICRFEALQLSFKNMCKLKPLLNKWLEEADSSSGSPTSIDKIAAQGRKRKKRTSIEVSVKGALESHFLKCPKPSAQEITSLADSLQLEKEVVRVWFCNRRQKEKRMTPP
Assay: X-ray crystallography

B1: MORE DNA (dsDNA)
DNA 1: GTATGCAAATAAG
DNA 2: CTTATTTGCATAC
**Q.** Does B1 bind?
**A.** binds
